Biological target: T1, CRB1-FLAG p.C480R (human, UniProt P82279 26-1406, p.C480R)
T1 construct: Crumbs homolog 1, canonical form, human, cDNA NM_202153 as printed, with a patient missense mutation; Made by site-directed mutagenesis of m1; also called CRB1 p.C480R; CRB1-FLAG MT; source: HEK293T, transfected, in lysate; not shown: Strep-Strep-FLAG, N-terminal, kept
T1 sequence (looked up): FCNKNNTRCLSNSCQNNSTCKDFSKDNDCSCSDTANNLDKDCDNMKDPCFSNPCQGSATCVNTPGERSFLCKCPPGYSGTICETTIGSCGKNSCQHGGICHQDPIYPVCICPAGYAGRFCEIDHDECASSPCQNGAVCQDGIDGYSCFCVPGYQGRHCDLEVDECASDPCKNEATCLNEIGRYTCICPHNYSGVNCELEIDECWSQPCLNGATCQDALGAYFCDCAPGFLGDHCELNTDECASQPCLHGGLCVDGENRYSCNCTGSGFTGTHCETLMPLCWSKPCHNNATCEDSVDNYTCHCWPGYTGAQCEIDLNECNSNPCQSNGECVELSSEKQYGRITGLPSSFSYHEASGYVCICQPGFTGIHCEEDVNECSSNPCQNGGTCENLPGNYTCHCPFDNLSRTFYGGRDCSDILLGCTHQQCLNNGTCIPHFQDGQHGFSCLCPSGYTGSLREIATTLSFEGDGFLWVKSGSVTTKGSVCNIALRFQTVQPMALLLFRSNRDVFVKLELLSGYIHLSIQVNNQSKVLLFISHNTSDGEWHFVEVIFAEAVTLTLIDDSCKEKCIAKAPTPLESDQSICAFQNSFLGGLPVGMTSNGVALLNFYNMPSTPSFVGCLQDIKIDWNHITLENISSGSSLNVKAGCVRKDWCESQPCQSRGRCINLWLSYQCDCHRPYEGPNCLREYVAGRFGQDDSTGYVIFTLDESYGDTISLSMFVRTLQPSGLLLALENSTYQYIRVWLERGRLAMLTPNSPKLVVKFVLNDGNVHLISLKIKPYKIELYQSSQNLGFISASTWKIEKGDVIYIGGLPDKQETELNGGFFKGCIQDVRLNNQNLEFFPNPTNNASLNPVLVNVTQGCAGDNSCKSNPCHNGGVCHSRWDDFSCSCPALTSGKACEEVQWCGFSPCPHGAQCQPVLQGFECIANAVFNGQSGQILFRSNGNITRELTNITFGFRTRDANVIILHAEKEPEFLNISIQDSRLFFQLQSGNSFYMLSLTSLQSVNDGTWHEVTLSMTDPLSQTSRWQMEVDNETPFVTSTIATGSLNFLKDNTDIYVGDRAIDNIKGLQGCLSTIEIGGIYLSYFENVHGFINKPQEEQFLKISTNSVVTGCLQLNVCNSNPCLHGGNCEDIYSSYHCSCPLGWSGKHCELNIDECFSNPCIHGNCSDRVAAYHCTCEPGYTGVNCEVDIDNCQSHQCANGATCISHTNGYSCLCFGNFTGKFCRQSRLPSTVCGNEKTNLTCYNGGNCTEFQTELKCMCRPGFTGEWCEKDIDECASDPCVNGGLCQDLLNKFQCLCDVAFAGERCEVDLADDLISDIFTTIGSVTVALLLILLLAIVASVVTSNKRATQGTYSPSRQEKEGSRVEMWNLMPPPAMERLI
Test: co-IP; HEK293T cells co-transfected pairwise with a FLAG and an HA construct, 48 h; lysis in TBS (30 mM Tris-HCl pH 7.4, 150 mM NaCl) with 0.5% Nonidet P40; FLAG-IP on ANTI-FLAG M2 Affinity Gel 60-90 min at 4°C, elution with FLAG peptide; Western blot with HA and FLAG antibodies; for mutants HA/FLAG signal in eluates relative to WT, three biological replicates
Details: partners not purified

B1: Human canonical CRB2 (Crumbs homolog 2) (natural protein)
chain: not shown
notes: Crumbs homolog 2, human, cDNA NM_173689; Stood as bait (FLAG copy) and as prey (HA copy) in the pairwise co-IP matrix; each copy carries only one of the two tags; The FLAG copy was the bait of the mass spectrometry pull-downs; also called CRB2-FLAG; CRB2-HA; source: HEK293T, transfected, in lysate (co-IP); HEK293T, transfected, FLAG-IP on beads, washed and purified with 0.01% SDS (retina …)
B1 was tested, and the “percent of the interaction capacity relative to CRB1 WT” value was 96%.

— publication PMC10992996, “Human CRB1 and CRB2 form homo- and heteromeric protein complexes in the retina” (Life Science Alliance, 2024)
